Results reported in patent publication US20250263461A1.
Blank lines part the entries; values can stand above or below the substance they belong to.

Experiments:
[1] = target: NY-ESO-1 and/or LAGE-1a peptide on HLA-A*02:01 (human); assay: value quoted for comparison with 1G4LY; no measurement of 1G4 is described in this filing
[2] = target: NY-ESO-1 and/or LAGE-1a peptide on HLA-A*02:01 (human); assay: surface plasmon resonance; biotinylated pMHC on streptavidin chip, soluble TCR 0 to 250 nM as analyte; 1:1 binding model; soluble, other
[3] = target: NY-ESO-1 and/or LAGE-1a peptide on HLA-A*02:01 (human); assay: surface plasmon resonance; biotinylated pMHC on streptavidin chip, soluble TCR as analyte; 1:1 binding model; soluble, other
[4] = target: pMHC1 complex: Biotin-HLA-A*02:01-… (SEQ ID NO: 1); assay: SPR, pMHC on streptavidin chip, soluble TCR as analyte, 1:1 binding model

Kd [1]: 32000 nM
Substance: 1G4 TCR

Kd [2]: 761 nM | koff [3]: 0.0303 s⁻¹ | kon [3]: 39800 M⁻¹ s⁻¹
Substance: 1G4LY TCR

Kd [4]: 761 nM | koff [4]: 0.0303 s⁻¹ | kon [4]: 39800 M⁻¹ s⁻¹
Substance: soluble 1G4LY TCR
